Assay results from PMC4673829, “Chemical basis for the recognition of trimethyllysine by epigenetic reader proteins” (Nature Communications, 2015).
Ends that are not written are not given here. Me3 = trimethyllysine (Kme3)

Key:
JMJD2A tudor domains = molecular target: T1, JMJD2A tudor domains; experiment: ITC; 350–600 μM H3K4me3 or H3C4me3 peptide titrated to 25–40 μM protein (JMJD2A–H3C4me3: 3 mM peptide to 200 μM JMJD2A); 19 injections; Microcal Auto-iTC200; one set of sites model; 5–7 repeats
T1 sequence (O75164 whole entry, species assumed, looked up): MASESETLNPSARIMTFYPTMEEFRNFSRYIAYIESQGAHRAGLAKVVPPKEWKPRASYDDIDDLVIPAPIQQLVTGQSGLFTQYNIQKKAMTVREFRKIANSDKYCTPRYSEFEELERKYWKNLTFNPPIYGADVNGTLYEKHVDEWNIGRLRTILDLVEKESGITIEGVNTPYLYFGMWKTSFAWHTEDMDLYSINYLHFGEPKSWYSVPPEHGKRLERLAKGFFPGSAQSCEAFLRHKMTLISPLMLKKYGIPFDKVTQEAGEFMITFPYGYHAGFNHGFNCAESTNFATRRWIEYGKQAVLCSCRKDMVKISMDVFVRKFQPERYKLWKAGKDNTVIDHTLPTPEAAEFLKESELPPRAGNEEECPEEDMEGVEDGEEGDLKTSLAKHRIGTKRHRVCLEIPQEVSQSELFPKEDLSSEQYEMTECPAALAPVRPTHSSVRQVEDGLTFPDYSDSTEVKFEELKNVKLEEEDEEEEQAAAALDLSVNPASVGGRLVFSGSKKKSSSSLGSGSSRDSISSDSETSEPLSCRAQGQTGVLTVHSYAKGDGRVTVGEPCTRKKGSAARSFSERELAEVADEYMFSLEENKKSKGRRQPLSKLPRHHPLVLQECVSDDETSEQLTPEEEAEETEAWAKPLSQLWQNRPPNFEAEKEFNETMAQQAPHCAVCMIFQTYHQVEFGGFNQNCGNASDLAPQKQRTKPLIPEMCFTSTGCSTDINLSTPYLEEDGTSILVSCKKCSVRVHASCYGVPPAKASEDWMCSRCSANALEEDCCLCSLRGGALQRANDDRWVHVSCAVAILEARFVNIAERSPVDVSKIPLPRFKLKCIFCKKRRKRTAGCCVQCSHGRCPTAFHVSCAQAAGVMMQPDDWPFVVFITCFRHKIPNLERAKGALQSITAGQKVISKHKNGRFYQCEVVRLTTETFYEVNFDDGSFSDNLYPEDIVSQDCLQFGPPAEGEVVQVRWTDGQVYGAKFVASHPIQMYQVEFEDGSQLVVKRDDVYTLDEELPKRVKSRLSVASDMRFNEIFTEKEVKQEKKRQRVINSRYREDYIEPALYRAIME

[1] = molecular target: SGF29 tandem tudor domain (for ITC); experiment: as above
Sequence of SGF29 tandem tudor domain (for ITC) (Q96ES7 whole entry, the tested form may be a part): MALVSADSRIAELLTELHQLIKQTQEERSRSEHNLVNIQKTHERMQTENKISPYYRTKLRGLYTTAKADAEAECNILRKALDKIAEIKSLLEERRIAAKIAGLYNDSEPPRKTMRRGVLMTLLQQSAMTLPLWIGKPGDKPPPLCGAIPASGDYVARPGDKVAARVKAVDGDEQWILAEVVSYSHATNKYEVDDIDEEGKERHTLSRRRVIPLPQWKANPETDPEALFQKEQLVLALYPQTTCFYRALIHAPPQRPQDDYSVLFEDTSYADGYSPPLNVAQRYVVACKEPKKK

[2] = molecular target: JARID1A PHD3 domain (for ITC); experiment: as above
[3] = molecular target: JARID1A PHD3 domain (for ITC); experiment: ITC; H3G4 (5 mM) titrated to JARID1A (330 μM), H3G4 (3 mM) titrated to TAF3 (200 μM); 19 injections; Microcal Auto-iTC200; one set of sites model

| Binder | Kd (JMJD2A tudor domains) [nM] | dH (JMJD2A tudor domains) [kcal/mol] | Kd [1] [nM] | dH [1] [kcal/mol] | Kd [2] [nM] | dH [2] [kcal/mol] | Kd [3] [nM] | dH [3] [kcal/mol] |
| --- | --- | --- | --- | --- | --- | --- | --- | --- |
| ARTK(Me3)QTARKS-OH [10-mer H3K4me3 histone peptide] | 940 | -13.1 | 1700 | -7.7 | 94 | -11 |  |  |
| ARTGQTARKS-OH [10-mer H3G4 histone peptide] |  |  |  |  |  |  | 88000 | -2.1 |
